The target in test [1] is T1, Recombinant human PD-1 (Sino Biological Inc., Catalog Number 10377-H08H) (human, UniProt Q15116 25-167).
T1 construct: Bought protein; also called antigen PD-1
As to the kind of experiment: SPR (Biacore X100), antibody captured on anti-human IgG CM5 chip, PD-1 as analyte. The method, then: The instrument utilizes an optical surface plasmon resonance technique to detect association and dissociation between a molecule coupled on a sensor chip and an analyte. CM5 chips (GE Healthcare, BR-1000-12) were used. […] In the association phase, the antigen PD-1 was diluted to multiple concentrations with a running buffer, and injected at a rate of 30 μL/min for 180 seconds. In the dissociation phase, the duration of the dissociation was 1200 seconds. Glycine solution (GE Healthcare, BR-1003-54) was used to regenerate for 30 seconds at a speed of 10 μL/min. […] Association rate constant and dissociation rate constant were analyzed and calculated by Biacore X100 evaluation software.
For orientation: SPR reads the build-up and loss of mass on a sensor chip optically.

The target of test [2] is T2, Recombinant human PD-1-Fc (human, UniProt Q15116 25-167, limits assumed).
T2 construct: also called recombinant human PD-1-Fc protein; not shown: Fc part
The experiment in a line: competition ELISA, coated human PD-1-Fc, blocked ligand biotin-labeled PD-L1 (final 10 nM), streptavidin-HRP, OD450nm [panel PD-1/PD-L1 Blocking Activity]. How it is done: Recombinant human PD-1-Fc was coated on a 96-well high-absorbing ELISA plate with a carbonate buffer solution with pH 9.6, the coating concentration was 1 μg/mL, the coating amount was 100 μL per well, and the coating was carried at 4° C. out overnight. The plate was washed five times with PBST and blocked with 300 μL/well of PBST containing 1% BSA and incubated at 25° C. for 1 hour. The plate was washed five times with PBST. The positive control and the anti-human PD-1 antibody sample were added, 50 μL per well. […] The plate was washed five times with PBST. Then, Streptavidin-HRP (BD Pharmingen, Catalog Number 554066) 1:1000 diluted in PBST containing 1% BSA was added, 100 μL per well, incubated at 25° C. for 1 hour. The plate was washed five times with PBST. 100 μL/well of colorimetric substrate TMB was added and incubated at room temperature for 10 minutes. Color development was terminated by adding 100 μL/well of 1 M H₂SO₄. The absorbance at 450 nm was read on a microplate reader.
(In an ELISA, binding on a coated surface is turned into a signal by an enzyme label.)

For test [3], the target named is T3, Recombinant human ICOS (Sino Biological Inc.) (human, UniProt Q9Y6W8 21-141).
T3 sequence (looked up): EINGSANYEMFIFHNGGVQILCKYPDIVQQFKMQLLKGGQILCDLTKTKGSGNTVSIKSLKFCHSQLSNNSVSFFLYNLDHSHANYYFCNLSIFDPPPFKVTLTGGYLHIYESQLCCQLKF
As to the kind of experiment: binding specificity ELISA, coated recombinant human ICOS, anti-human IgG-HRP. How it is done:
(§1) The plate was washed five times with PBST and blocked with 300 μL/well of PBST containing 1% BSA and incubated at 25° C. for 1 hour. The plate was washed five times with PBST. […] The plate was washed five times with PBST. Then, horseradish peroxidase-labeled anti-human IgG antibody (Chemicon, Catalog Number AP309P) 1:2000 diluted in PBST containing 1% BSA was added, 100 μL was added to each well, incubated at 25° C. for 1 hour. The plate was washed five times with PBST. 100 μL/well of colorimetric substrate TMB was added and incubated at room temperature for 10 minutes. Color development was terminated by adding 100 μL/well of 1 M H₂SO₄. The absorbance at 450 nm was read on a microplate reader.

Test [4] deals with T4, Recombinant human CTLA4 (Sino Biological Inc.) (human, UniProt P16410 36-162).
T4 sequence (looked up): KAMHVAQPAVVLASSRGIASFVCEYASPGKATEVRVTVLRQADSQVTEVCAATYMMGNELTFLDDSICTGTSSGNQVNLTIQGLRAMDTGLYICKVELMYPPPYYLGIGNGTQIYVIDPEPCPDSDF
The experiment in a line: binding specificity ELISA, coated recombinant human CTLA4, anti-human IgG-HRP. How it is done:
as §1

In test [5] the target is T5, Recombinant mouse PD-1 (Sino Biological Inc.) (mouse, UniProt Q02242 25-167).
T5 sequence (looked up): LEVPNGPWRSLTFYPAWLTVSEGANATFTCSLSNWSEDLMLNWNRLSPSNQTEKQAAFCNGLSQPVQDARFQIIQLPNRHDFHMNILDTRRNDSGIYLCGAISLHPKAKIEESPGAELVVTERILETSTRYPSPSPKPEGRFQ
The experiment in a line: species specificity ELISA, coated recombinant mouse PD-1, anti-human IgG-HRP. The method, then: Recombinant human PD-1, monkey PD-1, rat PD-1 and mouse PD-1 (all purchased from Sino Biological Inc.), were coated on a 96-well high-absorbing ELISA plate with a carbonate buffer solution with pH 9.6, the coating concentration was 1 μg/mL, the coating amount was 100 μL per well, and the coating was carried out at 4° C. overnight. The plate was washed five times with PBST and blocked with 300 μL/well of PBST containing 1% BSA, and then incubated at 25° C. for 1 hour. The plate was washed five times with PBST. […] The plate was washed five times with PBST. Then, horseradish peroxidase-labeled anti-human IgG antibody (Chemicon, Catalog Number AP309P) 1:2000 diluted in PBST containing 1% BSA was added, 100 μL per well, incubated at 25° C. for 1 hour. The plate was washed five times with PBST. 100 μL/well of colorimetric substrate TMB was added and incubated at room temperature for 10 minutes. Color development was terminated by adding 100 μL/well of 1 M H₂SO₄: The absorbance at 450 nm was read on a microplate reader.

Test [6] concerns the target Recombinant human PD-L1 (Sino Biological Inc.) (human, UniProt Q9NZQ7 19-239). As to the kind of experiment: binding specificity ELISA, coated recombinant human PD-L1, anti-human IgG-HRP. How it is done:
as §1

Test [7] concerns the target T6, Recombinant human CD86 (Sino Biological Inc.) (human, UniProt P42081 24-247, limits assumed).
T6 sequence (looked up): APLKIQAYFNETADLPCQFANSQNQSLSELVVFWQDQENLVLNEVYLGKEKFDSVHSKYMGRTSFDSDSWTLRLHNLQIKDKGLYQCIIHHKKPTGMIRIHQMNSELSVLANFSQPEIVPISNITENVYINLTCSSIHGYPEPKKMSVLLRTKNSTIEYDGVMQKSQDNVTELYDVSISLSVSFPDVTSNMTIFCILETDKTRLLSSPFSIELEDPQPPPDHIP
The experiment in a line: binding specificity ELISA, coated recombinant human CD86, anti-human IgG-HRP. How it is done:
as §1

T1 sequence (Q15116 25-167 limits assumed): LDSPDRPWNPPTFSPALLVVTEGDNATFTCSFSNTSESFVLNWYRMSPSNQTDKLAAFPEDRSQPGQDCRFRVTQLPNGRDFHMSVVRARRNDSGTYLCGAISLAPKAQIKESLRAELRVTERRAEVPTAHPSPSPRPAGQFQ
Chain of Recombinant human PD-L1 (Sino Biological Inc.) (Q9NZQ7 19-239 limits assumed): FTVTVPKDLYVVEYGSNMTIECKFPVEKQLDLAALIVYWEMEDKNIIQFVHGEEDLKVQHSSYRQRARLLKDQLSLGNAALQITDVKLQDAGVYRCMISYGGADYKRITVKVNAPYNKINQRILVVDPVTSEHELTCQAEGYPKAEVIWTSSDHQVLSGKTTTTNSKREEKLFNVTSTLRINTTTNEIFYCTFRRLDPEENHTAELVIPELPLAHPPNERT
T2 sequence (Q15116 25-167 limits assumed): as the sequence (Q15116 25-167 limits assumed) above

B1: anti-human PD-1 chimeric monoclonal antibody (antibody, human IgG4 S228P, kappa, V domains shown)
VH: EVQLQESGGGLVKPGGSLKLSCAASGFTFSSYGMSWVRQTPEKRLEWVASISGGGRYTYYPDSMKGRFTISRDNAKNNLHLQMSSLRSEDTALYYCVYEYFYTMDYWGQGTSVTVSS
VL: DIVLTQSPATLSVTPGDSVSLSCRANQSISNNLHWYQQRSHESPRLLIRFASQSISGIPSRFSGSGSGTDFTLSINSVETEDFGMYFCQQSDNWPLTFGAGTKLEIKR
notes: expressed in 293F cells; also called Anti-human PD-1 Chimeric Antibody; chimeric anti-human PD-1 monoclonal antibody
Turning to B1, in test [1], the Kd turned out to be 1.37 nM. In addition, in test [1], the koff worked out at 0.000295 s⁻¹. In test [1], the kon was 215000 M⁻¹ s⁻¹. Besides, the IC50 in test [2] was found to be 0.972 nM. Also, the binding result in test [3] is given as “no binding”; in test [4], “no binding”; in test [5], “no binding (tested: about 20 nM)”; in test [6], “no binding”; in test [7] it was “no binding”.

As a reminder, the Kd is the free concentration of one partner at which half of the binding sites on the other are occupied at equilibrium, for simple one-to-one binding. Broadly, the koff is a measure of how fast the partners let go of each other. As usually defined, the kon is a measure of how fast the partners come together. By IC50 is commonly meant the concentration that gives 50% inhibition.

These data come from patent publication US20190367615A1 (BEIJING HANMI PHARM, published 2019).
